Test results: publication PMC3082741 (Chemistry & biology, 2011)
Several values for one entry are separate records, joined by “and”; a condition that tells them apart may be missing. Identical values can stand only once.

What was measured:
[1] = molecular target: AcrA^S362C modified with biotin-maleimide, the immobilized AcrA (E. coli) (UniProt P0AE06); assay: SPR
SEC-MALS [2] = molecular target: the molecule itself; assay: SEC-MALS
SEC-MALS [3] = molecular target: the molecule itself; assay: SEC-MALS; remark: listed apart in the source
[4] = molecular target: the molecule itself; assay: SDS-PAGE under reducing and non-reducing conditions

For “TolC, outer membrane channel (from UniProt P02930 23-493) (natural protein)”, the KD1 (slow complexes, two populations of AcrA) [1] was 0.01 µM and the KD2 (fast complexes, two populations of AcrA) [1] was 0.11 µM.

“TolC^YFRE, TolC mutant containing Y362F and R367E substitutions (open variant) (from UniProt P02930 23-493) (natural protein)” was tested, and the KD1 (slow complexes, two populations of AcrA) [1] was 0.02 µM and the KD2 (fast complexes, two populations of AcrA) [1] was 6.7 µM.

B1: AcrB^S1043C biotinylated at C1043 (Cys1043^bio), the immobilized AcrB (natural protein)
chain: MPNFFIDRPIFAWVIAIIIMLAGGLAILKLPVAQYPTIAPPAVTISASYPGADAKTVQDTVTQVIEQNMNGIDNLMYMSSNSDSTGTVQITLTFESGTDADIAQVQVQNKLQLAMPLLPQEVQQQGVSVEKSSSSFLMVVGVINTDGTMTQEDISDYVAANMKDAISRTSGVGDVQLFGSQYAMRIWMNPNELNKFQLTPVDVITAIKAQNAQVAAGQLGGTPPVKGQQLNASIIAQTRLTSTEEFGKILLKVNQDGSRVLLRDVAKIELGGENYDIIAEFNGQPASGLGIKLATGANALDTAAAIRAELAKMEPFFPSGLKIVYPYDTTPFVKISIHEVVKTLVEAIILVFLVMYLFLQNFRATLIPTIAVPVVLLGTFAVLAAFGFSINTLTMFGMVLAIGLLVDDAIVVVENVERVMAEEGLPPKEATRKSMGQIQGALVGIAMVLSAVFVPMAFFGGSTGAIYRQFSITIVSAMALSVLVALILTPALSATMLKPIAKGDHGEGKKGFFGWFNRMFEKSTHHYTDSVGGILRSTGRYLVLYLIIVVGMAYLFVRLPSSFLPDEDQGVFMTMVQLPAGATQERTQKVLNEVTHYYLTKEKNNVESVFAVNGFGFAGRGQNTGIAFVSLKDWADRPGEENKVEAITMRATRAFSQIKDAMVFAFNLPAIVELGTATGFDFELIDQAGLGHEKLTQARNQLLAEAAKHPDMLTSVRPNGLEDTPQFKIDIDQEKAQALGVSINDINTTLGAAWGGSYVNDFIDRGRVKKVYVMSEAKYRMLPDDIGDWYVRAADGQMVPFSAFSSSRWEYGSPRLERYNGLPSMEILGQAAPGKSTGEAMELMEQLASKLPTGVGYDWTGMSYQERLSGNQAPSLYAISLIVVFLSLAALYESWSIPFSVMLVVPLGVIGALLAATFRGLTNDVYFQVGLLTTIGLSAKNAILIVEFAKDLMDKEGKGLIEATLDAVRMRLRPILMTSLAFILGVMPLVISTGAGSGAQNAVGTGVMGGMVTATVLAIFFVPVFFVVVRRRFSRKNEDIEHCHTVDHH
modifications: maleimide-PEG2-biotin on C1043
With B1 the “stoichiometry N” value (SEC-MALS [2]) was 2 and 3.

B2: AcrA^l, native lipid-modified AcrA (natural protein)
chain: CDDKQAQQGGQQMPAVGVVTVKTEPLQITTELPGRTSAYRIAEVRPQVSGIILKRNFKEGSDIEAGVSLYQIDPATYQATYDSAKGDLAKAQAAANIAQLTVNRYQKLLGTQYISKQEYDQALADAQQANAAVTAAKAAVETARINLAYTKVTSPISGRIGKSNVTEGALVQNGQATALATVQQLDPIYVDVTQSSNDFLRLKQELANGTLKQENGKAKVSLITSDGIKFPQDGTLEFSDVTVDQTTGSITLRAIFPNPDHTLLPGMFVRARLEEGLNPNAILVPQQGVTRTPRGDATVLVVGADDKVETRPIVASQAIGDKWLVTEGLKAGDRVVISGLQKVRPGVQVKAQEVTADNNQQAASGAQPEQSKS
modifications: N-terminal lipid modification at C25
For B2, the “stoichiometry N” value (SEC-MALS [3]) was 2.

B3: AcrA^G363C, lipid-modified AcrA with the G363C substitution in the MP domain (natural protein)
chain: CDDKQAQQGGQQMPAVGVVTVKTEPLQITTELPGRTSAYRIAEVRPQVSGIILKRNFKEGSDIEAGVSLYQIDPATYQATYDSAKGDLAKAQAAANIAQLTVNRYQKLLGTQYISKQEYDQALADAQQANAAVTAAKAAVETARINLAYTKVTSPISGRIGKSNVTEGALVQNGQATALATVQQLDPIYVDVTQSSNDFLRLKQELANGTLKQENGKAKVSLITSDGIKFPQDGTLEFSDVTVDQTTGSITLRAIFPNPDHTLLPGMFVRARLEEGLNPNAILVPQQGVTRTPRGDATVLVVGADDKVETRPIVASQAIGDKWLVTEGLKAGDRVVISCLQKVRPGVQVKAQEVTADNNQQAASGAQPEQSKS
modifications: N-terminal lipid modification at C25; disulfide bond between the two chains
With B3 the “stoichiometry N” value [4] was 2.
